Earlier results, collected in PMC3774674.

Biological target: E-cadherin EC12 (Mus musculus) (UniProt P09803)

E-cadherin EC12 (from UniProt P09803)
Kd: 98.6 µM
